{"source": "paper doi:10.1101/2023.02.02.526913", "assay_in_all_cases": "cryo-EM structure", "key": {"[1]": {"target": "microtubules prepared from porcine brain tubulin (porcine) (UniProt P02550)", "sequence (P02550 whole entry, chain 1 of 2)": "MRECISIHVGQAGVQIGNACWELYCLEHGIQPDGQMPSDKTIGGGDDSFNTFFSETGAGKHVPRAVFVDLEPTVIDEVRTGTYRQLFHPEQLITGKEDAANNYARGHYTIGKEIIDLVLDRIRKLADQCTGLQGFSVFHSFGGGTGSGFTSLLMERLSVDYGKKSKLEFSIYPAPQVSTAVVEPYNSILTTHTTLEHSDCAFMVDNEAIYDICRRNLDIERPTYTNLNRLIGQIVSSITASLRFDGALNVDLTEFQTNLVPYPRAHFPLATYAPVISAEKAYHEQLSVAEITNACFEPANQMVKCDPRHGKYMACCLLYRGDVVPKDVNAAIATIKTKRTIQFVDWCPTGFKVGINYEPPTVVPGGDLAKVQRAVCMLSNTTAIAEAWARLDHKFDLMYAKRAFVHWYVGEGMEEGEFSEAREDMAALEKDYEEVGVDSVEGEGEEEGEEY", "sequence (P02554 whole entry, chain 2 of 2, further chain)": "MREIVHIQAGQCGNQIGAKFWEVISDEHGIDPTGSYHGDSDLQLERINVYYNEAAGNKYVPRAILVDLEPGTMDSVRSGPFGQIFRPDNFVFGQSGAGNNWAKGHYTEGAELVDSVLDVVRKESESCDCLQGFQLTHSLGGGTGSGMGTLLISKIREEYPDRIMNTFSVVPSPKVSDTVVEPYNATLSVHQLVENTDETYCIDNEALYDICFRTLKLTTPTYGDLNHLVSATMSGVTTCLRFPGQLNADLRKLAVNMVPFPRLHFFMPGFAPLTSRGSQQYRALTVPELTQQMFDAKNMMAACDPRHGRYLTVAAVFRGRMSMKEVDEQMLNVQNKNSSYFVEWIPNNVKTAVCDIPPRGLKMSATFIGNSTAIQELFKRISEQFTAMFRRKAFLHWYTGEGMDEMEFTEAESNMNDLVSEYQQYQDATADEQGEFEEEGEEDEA"}, "[2]": {"target": "microtubules prepared from porcine brain tubulin (porcine) (UniProt P02550)", "remark": "listed apart in the source"}, "[3]": {"target": "microtubules prepared from porcine brain tubulin (porcine) (UniProt P02550)", "remark": "listed apart in the source"}}, "note": "Like-named read-outs stand apart in the source and are kept apart here.", "data": [{"substance": "KIF1A(aa1-393)-LZ-strepII (from UniProt Q12756 1-393) (domain or fragment)", "values": [{"measurement": "decorated fraction of the kinesin sites on tubulin", "setting": "[1]", "value": 32, "unit": "%"}, {"measurement": "decorated fraction of the kinesin sites on tubulin", "setting": "[2]", "value": 74, "unit": "%"}]}, {"substance": "KIF1A^P305L (KIF1A(aa1-393, P305L)-LZ-strepII) (from UniProt Q12756 1-393) (domain or fragment)", "values": [{"measurement": "decorated fraction of the kinesin sites on tubulin", "setting": "[3]", "value": 9, "unit": "%"}, {"measurement": "decorated fraction of the kinesin sites on tubulin", "setting": "[1]", "value": 25, "unit": "%"}]}]}
